In patent publication US20230414796A1, “COMBINATION OF PARA-AMINOHIPPURIC ACID (PAH) AND RADIOLABELED COMPLEXES FOR TREATING CANCER” (priority 2020, published 2023):

Legend:
[1] = Example 1: body weight of AR42J xenograft CD1 nude mice; details: mouse, in vivo
Method: (§1) Body weight and tumor volume were evaluated every two to three days for a period of 57 days after treatment (or until the tumor size limit was reached). The tumor volume was determined by measuring the length, the width and the depth of the tumor with a digital caliper. Tumor volume was calculated by using the following formula: […]
(§2) The mice were monitored until the individual tumor size reached 1500 mm^3. When this experimental endpoint was reached or after a 57 days period following treatment, mice were euthanized. Mean tumor volume and body weight of AR42J xenograft CD1 nude mice were calculated for each treatment group throughout the duration of the study.

[2] = Example 2: body weight of AR42J xenograft SWISS mice; design: species or system SWISS nude mice; details: mouse, in vivo
Method: 10 min prior to dosing of ^177Lu-DOTATOC, mice of groups 1 and 2 were injected intraperitoneally with 50 μL saline or PAH, respectively.
as §1, with “46” for “57”
as §2, with “46” for “57”, “SWISS” for “CD1 nude”

C[C@@H](O)[C@@H]1NC(=O)[C@H](CCCCN)NC(=O)[C@@H](Cc2c[nH]c3ccccc23)NC(=O)[C@H](Cc2ccc(O)cc2)NC(=O)[C@@H](NC(=O)[C@@H](Cc2ccccc2)NC(=O)CN2CCN(CC(=O)O)CCN(CC(=O)O)CCN(CC(=O)O)CC2)CSSC[C@@H](C(=O)N[C@H](CO)[C@@H](C)O)NC1=O [^177Lu-DOTATOC, ^177Lu-DOTA-D-Phe-cyclo(Cys-Tyr-D-Trp-Lys-Thr-Cys]-Thr(ol), metal not drawn]
average weight change compared to untreated tumor-bearing control mice [1]: increased similarly
physical appearance throughout the study period [1]: maintained a healthy physical appearance
average weight increase compared to tumor-bearing control mice [2]: increased slightly more slowly
physical appearance throughout the study period [2]: maintained a healthy physical appearance
radiotoxicity (suggested by body weight) [2]: low radiotoxicity
